Laboratory results taken from patent US20110262446A1 (published 2011).

B1: M0063-F02 IgG (antibody, V domains shown)
VH: EVQLLESGGGLVQPGGSLRLSCAASGFTFSKYEMDWVRQAPGKGLEWVSVISSSGGGTIYADSVKGRFTISRDNSKNTLYLQMNSLRAEDTAMYYCARGRTLYGGAFDIWGQGTMVTVSS
VL: DIQMTQSPSSLSASVGDRVTITCRASQPINTYLNWYQQRPGKAPRILIYTSSTLQSGVPSRFSGSGSGTDFTLTISSVQPEDFATYYCQQSYSFPLTFGGGTKVEIK
notes: IgG form of the Fab; Variable domains as printed for the Fab (LV with its leading Q)
B2: M0064-F02 Fab (Fab, V domains shown)
VH: EVQLLESGGGLVQPGGSLRLSCAASGFTFSNYIMWWVRQAPGKGLEWVSVISSSGGMTRYADSVKGRFTISRDNSKNTLYLQMNSLRAEDTAVYYCARDNGDYVGEKGFDIWGQGTMVTVSS
VL: DIQMTQSPSSLSASVGDRVTITCRASQSISNYLNWYQQKPGKAPKLLIYTASTLQSGVPSRFSGSASGTDFTLTINSLQPEDFATYSCQQSYNSPWTFGQGTKVEIKR
notes: Soluble Fab from phage display; also called M0064-F02(R0032-A11); 566A-M0064-F02
B3: M0072-C06 Fab (Fab, V domains shown)
VH: EVQLLESGGGLVQPGGSLRLSCAASGFTFSAYIMTWVRQAPGKGLEWVSSISPSGGYTVYADSVKGRFTISRDNSKNTLYLQMNSLRAEDTAVYYCARDSGFGDPFDYWGQGTMVTVSS
VL: DIQMTQSPSSLSASVGDRVTITCRASQSIRNYLNWYQQKPGKAPKLLIYAASKLEDGVPSRFSGSGTGTDFTLTIRSLQPEDFASYFCQQSYSSPGITFGPGTKVEIKR
notes: Soluble Fab from phage display; Often printed as M0072-006; also called M0072-006; M0072-C06(R0032-A09)
B4: M0063-F02 Fab (Fab, V domains shown)
VH: B1 VH
VL: DIQMTQSPSSLSASVGDRVTITCRASQPINTYLNWYQQRPGKAPRILIYTSSTLQSGVPSRFSGSGSGTDFTLTISSVQPEDFATYYCQQSYSFPLTFGGGTKVEIKR
notes: Soluble Fab from phage display; also called M0063-F02(R0032-A01)
B5: M0072-E03 Fab (Fab, V domains shown)
VH: EVQLLESGGGLVQPGGSLRLSCAASGFTFSEYEMSWVRQAPGKGLEWVSSIYSSGGWTKYTDSVKGRFTISRDNSKNTLYLQMNSLRAEDTAVYYCAKGVHYDSSGLPIDWYFDLWGRGTLVTVSS
VL: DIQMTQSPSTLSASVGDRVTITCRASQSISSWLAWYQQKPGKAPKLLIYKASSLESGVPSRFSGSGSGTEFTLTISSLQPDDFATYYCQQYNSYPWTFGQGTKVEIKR
notes: Soluble Fab from phage display; also called M0072-E03(R0032-C03)
B6: M0064-E04 Fab (Fab, V domains shown)
VH: EVQLLESGGGLVQPGGSLRLSCAASGFTFSVYDMNWVRQAPGKGLEWVSSISSSGGGTLYADSVKGRFTISRDNSKNTLYLQMNSLRAEDTAVYYCARDSDTSSYYWYYDLWGRGTLVTVSS
VL: DIQMTQSPSSLSASVGDRVTITCQASHDISNYLNWYQQKPGKAPKLLIYAASRLQSGVPSRFSGGGSGTDFSLTISSLQAEDFATYYCQQSYSFPRTFGQGTNLEIKR
notes: Soluble Fab from phage display; also called M0064-E04(R0032-A03); 566A-M0064-E04
B7: M0072-G06 Fab (Fab, V domains shown)
VH: EVQLLESGGGLVQPGGSLRLSCAASGFTFSEYVMWWVRQAPGKGLEWVSVISPSGGYTVYADSVKGRFTISRDNSKNTLYLQMNSLRAEDTAVYYCARDRGGATTLDYWGQGTLVTVSS
VL: DIQMTQSPSTLSASVGDRVTITCRASQTISSWLAWYQQKPGKAPKLMIYKAASLGSEVPSRFSGSGSGTEFTLTISSLQPEDFSTYYCQQYKTYPVTFGQGTRLEIKR
notes: Soluble Fab from phage display; also called M0072-G06(R0032-C05)
B8: M0064-F02 IgG (antibody, V domains shown)
VH: B2 VH
VL: DIQMTQSPSSLSASVGDRVTITCRASQSISNYLNWYQQKPGKAPKLLIYTASTLQSGVPSRFSGSASGTDFTLTINSLQPEDFATYSCQQSYNSPWTFGQGTKVEIK
notes: IgG form of the Fab; also called non-germlined M0064-F02
B9: M0070-H08 Fab (Fab, V domains shown)
VH: EVQLLESGGGLVQPGGSLRLSCAASGFTFSRYWMIWVRQAPGKGLEWVSSIRSSGETKYADSVKGRFTISRDNSKNTLYLQMNSLRAEDTAVYYCARGPLSDYYDSSGYYFDAFDIWGQGTMVTVSS
VL: DIQMTQSPSSLSASAGDRVTITCRASQSISSYLNWYQQKPGKAPNLLIYTTSNLQGGVPSRFSGSGSGTDFTLTISSLQPEDFATYYCQQGYSFPLTFGGGTKVEIKR
notes: Soluble Fab from phage display; also called M0070-H08(R0032-A07)
B10: M0073-C11 Fab (Fab, V domains shown)
VH: EVQLLESGGGLVQPGGSLRLSCAASGFTFSPYDMWWVRQAPGKGLEWVSSISSSGGITAYADSVKGRFTISRDNSKNTLYLQMNSLRAEDTAVYYCARAGYSSSWGYYYYGMDVWGQGTTVTVSS
VL: QSALTQPPSVSVSPGQTASITCSGDRLGDKYASWYQQKPGQSPVLVIYQDTKRPSGIPERFSGSNSGSTATLTISGTQAMDEADYYCQAWDSSTVVFGGGTKLTVL
notes: Anti-IGF-IIE Fab; the constant regions are printed only in part; also called 566A-M0073-C11; 566A-X0003-B02
B11: M0080-G03 Fab (Fab, V domains shown)
VH: EVQLLESGGGLVQPGGSLRLSCAASGFTFSFYQMMWVRQAPGKGLEWVSSISPSGGRTYYADSVKGRFTISRDNSKNTLYLQMNSLRAEDTAVYYCAKDIGLGYCSSTSCYTGTPLDYWGQGTLVTVSS
VL: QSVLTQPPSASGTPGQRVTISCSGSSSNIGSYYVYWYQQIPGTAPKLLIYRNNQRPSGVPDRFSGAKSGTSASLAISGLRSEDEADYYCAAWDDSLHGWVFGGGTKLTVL
notes: Anti-IGF-IIE Fab; the constant regions are printed only in part; also called 566A-M0080-G03; 566A-X0004-A02
B12: M0072-C06 IgG (antibody, V domains shown)
VH: B3 VH
VL: DIQMTQSPSSLSASVGDRVTITCRASQSIRNYLNWYQQKPGKAPKLLIYAASKLEDGVPSRFSGSGTGTDFTLTIRSLQPEDFASYFCQQSYSSPGITFGPGTKVEIK
B13: M0072-G06 IgG (antibody, V domains shown)
VH: B7 VH
VL: DIQMTQSPSTLSASVGDRVTITCRASQTISSWLAWYQQKPGKAPKLMIYKAASLGSEVPSRFSGSGSGTEFTLTISSLQPEDFSTYYCQQYKTYPVTFGQGTRLEIK
B14: M0070-H08 IgG (antibody, V domains shown)
VH: B9 VH
VL: DIQMTQSPSSLSASAGDRVTITCRASQSISSYLNWYQQKPGKAPNLLIYTTSNLQGGVPSRFSGSGSGTDFTLTISSLQPEDFATYYCQQGYSFPLTFGGGTKVEIK
B15: M0072-E03 IgG (antibody, V domains shown)
VH: B5 VH
VL: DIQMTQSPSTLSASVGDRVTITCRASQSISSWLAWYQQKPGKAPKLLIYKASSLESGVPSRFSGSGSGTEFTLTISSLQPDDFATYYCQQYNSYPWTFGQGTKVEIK

The binders below were run against T1, IGF-II (amino acids 1-67) (human, UniProt P01344 25-91) (assay: cell-based or functional assay).
T1 sequence (P01344 25-91): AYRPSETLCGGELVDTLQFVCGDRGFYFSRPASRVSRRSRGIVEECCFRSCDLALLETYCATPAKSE

B1 was tested, and the “IC50, IGF-II stimulated BaF3 cell proliferation (Guava ViaCount)” value was 2 nM.

In the case of B1, the “IC50, IGF-II stimulated BaF3 cell proliferation (Guava ViaCount), second study” value is reported as about 7 nM.

What follows are binders tested against IGF-I (UniProt P05019 49-118) (assay: cell-based or functional assay).
IGF-I, sequence (P05019 49-118 limits assumed): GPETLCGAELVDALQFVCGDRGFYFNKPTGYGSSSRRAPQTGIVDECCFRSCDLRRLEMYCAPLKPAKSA

In order of falling “decrease in IGF-I stimulated cell proliferation, sFab at 50 µg/ml” value:
1. B2  ~30%
2. B3  ~30%
3. B4  ~30%
4. B5  ~30%
5. B6  ~30%

Target: T1, IGF-II (amino acids 1-67)
Assay: cell-based or functional assay
Remark: another data set of the same source

In order of falling “IC50, IGF-II stimulated BA/F3 cell proliferation (MTS)” value:
1. B7  8.7 µg/mL
2. B4  5.56 µg/mL
3. B3  5.12 µg/mL
4. B6  3.04 µg/mL
5. B2  0.68 µg/mL

The binders below were run against T1, IGF-II (amino acids 1-67) (assay: SPR (Biacore), non-germlined IgG).

Binder B8 has a Kd of 0.14 nM.

These binders were tested against T1, IGF-II (amino acids 1-67) (assay: SPR (Flexchip), Fab, first of duplicate; unit inferred).

In order of falling Kd:
1. B3  5.2 nM
2. B9  3.3 nM
3. B4  0.77 nM
4. B5  0.75 nM
5. B7  0.58 nM
6. B2  0.45 nM
7. B6  0.12 nM

What follows are binders tested against T1, IGF-II (amino acids 1-67) (assay: SPR (Flexchip), Fab, second of duplicate; unit inferred).

In order of falling Kd:
1. B4  1.6 nM
2. B7  1.4 nM
3. B2  1.2 nM
4. B9  1.1 nM
5. B3  0.7 nM
6. B5  0.3 nM
7. B6  0.25 nM

These binders were tested against T1, IGF-II (amino acids 1-67) (assay: competition SPR (Biacore T100) on immobilized huIR-A ECD, measurement #1).
Procedure: (§1) Competition SPR (BIACORE®) was performed under conditions of partially mass-transport limited conditions according to previously described methodology (Nieba et al., 1996). Approximately 16,700 relative response units (RU) of huIR-A (-exon11) ectodomain was coupled by standard amine chemistry to a BIACORE® CM5 chip sensor. Uncoated flow-cell surface was used as a reference. […] Regeneration of the surface was achieved by injection of 30 ul NaCltrate/NaCl pH 4.5. […] These Req estimates were subsequently plotted against total concentrations of Fab used and the resulting inhibition curve was utilised to calculate dissociation constant (KD).

B10: no binding.
B11: no binding.

Each binder was assayed against T1, IGF-II (amino acids 1-67) (assay: SPR (Biacore T100): IgG captured on Protein G', ligand bound, then BP injected; competitor BP2).
Procedure: (§2) BIACORE® T100 and a CM5 chip coated with Protein G were utilised to set up following assay. Approximately 1000 RU of Protein G′ was immobilized on a CM5 chip using standard amine chemistry immobilization method. Entire assay consisted of three sequential injection of following four reagents 1) Candidate IgG was injected onto Protein G′ at 10 ug/ml at 5 ul/min for 180 sec.

In order of falling “competition score (0 = does not compete significantly, 5 = competes strongly)” value:
1. B8  4 score 0-5
2. B15  4 score 0-5
3. B12  3 score 0-5
4. B14  3 score 0-5
5. B13  2 score 0-5
6. B1  1 score 0-5

These binders were tested against T1, IGF-II (amino acids 1-67) (assay: SPR (Biacore T100): IgG captured on Protein G', ligand bound, then BP injected; competitor BP4).
Procedure: as §2

In order of falling “competition score (0 = does not compete significantly, 5 = competes strongly)” value:
1. B8  4 score 0-5
2. B15  4 score 0-5
3. B12  2 score 0-5
4. B14  2 score 0-5
5. B13  1 score 0-5
6. B1  0 score 0-5

What follows are binders tested against T1, IGF-II (amino acids 1-67) (assay: competition SPR (Biacore T100), affinity in solution: Fab pre-incubated with ligand, free ligand read on immobilized huIR-A ECD; measurement #1; head prints 'KD nM').
Procedure: as §1

In order of falling Kd:
1. B7  3.99 nM
2. B9  3.24 nM
3. B5  2.62 nM
4. B3  1.64 nM
5. B4  1.17 nM
6. B2  1.03 nM
7. B6  0.608 nM

The binders below were run against T1, IGF-II (amino acids 1-67) (assay: competition SPR (Biacore T100), affinity in solution: Fab pre-incubated with ligand, free ligand read on immobilized huIR-A ECD; measurement #2; head prints 'KD nM').
Procedure: as §1

In order of falling Kd:
1. B3  2.52 nM
2. B6  1.11 nM
3. B4  0.858 nM
4. B2  0.503 nM
